The source of these data is patent US20260098092A1 (CHULALONGKORN UNIVERSITY, published 2026).

Where two headings read alike, the source gives them in different places.

The target in assay [1] is T1, human PD-1 on PD-1-expressing Jurkat effector cells (human, UniProt Q15116 25-288). Put plainly: cell-based or functional assay.
Assay [2] deals with T2, recombinant human PD-1 His-tag protein (R&D Systems) (human, UniProt Q15116 25-167).
T2 construct: Bought reagent; Used for the ELISA (coated) and for SPR (analyte); also called PD-1 protein; human PD-1 protein; not shown: His-tag
T2 sequence (Q15116 25-167 limits assumed): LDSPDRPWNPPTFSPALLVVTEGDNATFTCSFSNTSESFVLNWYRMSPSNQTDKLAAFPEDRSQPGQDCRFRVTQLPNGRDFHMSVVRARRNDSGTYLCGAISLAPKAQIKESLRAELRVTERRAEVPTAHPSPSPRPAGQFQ
Description: SPR, Biacore T200, antibody captured on Protein G chip, PD-1 His-tag injected, single-cycle kinetics, 1:1 model. As to the method: (§1) The Biacore T200 instrument, equipped with a Protein G sensor chip (GE Healthcare), was used to determine the binding kinetics between chimeric anti-PD-1 antibodies and PD-1 protein. Each purified chimeric anti-PD-1 antibody (1 μg/mL) was injected into the chip with a flow rate of 30 μL/min for 60 sec. […] The HBS-EP+buffer (GE Healthcare) was used as a buffer blank and diluent. The association constant (kₒₙ), dissociation constant (koff), and equilibrium constant (KD) values were calculated using Biacore T200 evaluation software (version 3.1) with a 1:1 Langmuir binding model curve fitting.
(In general: Surface plasmon resonance follows binding to a sensor surface in real time, without labels.)

The target of assay [3] is T2, recombinant human PD-1 His-tag protein …. Put plainly: ELISA, PD-1 His-tag coated on plate, anti-human IgG Fc-HRP detection. As to the method: ELISA technique was used to select hybridoma mini-pools producing anti-PD-1 antibodies using the following procedure. MaxiSorp ELISA plate was coated with PD-1 His-tag (R&D System) in PBS buffer (10 ng/100 μL/well) at 4° C. overnight. […] The culture supernatant of each mini-pool (100 μL) was added to the plate then incubated for 1 hour at 37° C. After washing, the plate was probed with goat anti-mouse IgG Fcγ-HRP (Jackson Immuno Research) diluted 1:8,000 in PBST (100 μL/well) and incubated for 1 hour at 37° C. […] 1 M H₂SO₄ (50 μL/well) was used to stop the reaction. […] Hybridoma mini-pools with absorbance values of more than 1.0 were selected for further screening.
The purified chimeric antibodies were 2-fold serial diluted for eleven rounds starting from […] until reaching the final concentration of 0.977 ng/mL. The PD-1 binding activity of purified chimeric antibodies was evaluated by ELISA following the procedure mentioned in Example 2, while the goat anti-human IgG Fcγ-HRP antibody (Jackson Immuno Research) diluted 1:10.000 in PBST was used to detect chimeric antibodies.

Assay [4] has the same target. Put plainly: SPR, Biacore T200, as in Example 8 (antibody on Protein G chip, PD-1 His-tag injected). On the procedure:
as §1

Assay [5] has as its target T1, human PD-1 on PD-1-expressing Jurkat …. Put plainly: cell-based or functional assay. The source holds these as a separate data set.
The target is the same in assay [6]. Put plainly: cell-based or functional assay. This is another data set of the same source.

T1 sequence (Q15116 25-288): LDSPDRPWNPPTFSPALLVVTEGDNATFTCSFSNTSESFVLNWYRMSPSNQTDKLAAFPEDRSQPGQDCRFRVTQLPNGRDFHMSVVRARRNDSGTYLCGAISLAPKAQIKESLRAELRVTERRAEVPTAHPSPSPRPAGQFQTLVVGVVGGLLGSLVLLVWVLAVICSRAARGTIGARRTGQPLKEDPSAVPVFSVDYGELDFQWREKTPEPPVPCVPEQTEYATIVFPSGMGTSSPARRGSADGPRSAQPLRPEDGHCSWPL

B1: xCUSB0123 (antibody, human IgG4, V domains shown)
VH: QVQLQQSGPELVRPGESVKISCKGSGYTFTDYVMHWVKQSHAKSLEWIGVITIYNDITNYNQKFKGKATMTIDKSSSTAYMELARLTSEDSAIYYCAREGYDSYWYFDVWGAGTTVTVSS
VL: DVLMTQTPLSLPVSLGDQASISCRSSQTIVHSNGNTYLEWYLQKPGQSPKLLIYKVSNRFSGVPDRFSGSGSGTDFTLKISRVEAEDLGVYYCFQGSHLPYTFGGGTKLEIK
notes: Chimeric: mouse variable regions joined to human IgG4/kappa constant regions; also called chimeric CUSB0123; not shown: human IgG4 constant region, UniProt P01861; human kappa constant region, UniProt P01834
The term Kd denotes the concentration at which binding is half-saturated. A word on the koff: it is the first-order rate constant of dissociation. Usually kon stands for the second-order rate constant of association. As usually defined, the EC50 is the concentration that produces a half-maximal response. For B1, the “PD-1/PD-L1 blockade bioassay, IC50” value in assay [1] came to 0.957 mg/L. For the same molecule, in assay [2], the Kd is 1.23 nM, the koff was found to be 0.000366 s⁻¹ and the kon amounted to 298000 M⁻¹ s⁻¹. Moreover, the EC50 in assay [3] turned out to be 0.0353 mg/L.

B2: zCUSB0125.9 (antibody, human IgG4, V domains shown)
VH: QVQLQESGPGLVKPSQTLSLTCTVSGYSITSDYAWNWIRQPPGKGLEWMGYIYYSGTTSYNPSLKSRISITRDTSKNQFSLKLSSVTAADTAVYYCARNYGSAFYYFDYWGQGTTLTVSS
VL: DIQMTQSPSSVSASVGDRVTITCHASQGISSNIGWLQQKPGKAFKGLIYRGTNLEDGVPSRFSGSGSGTDYTLTISSLQPEDFATYYCVQYAQFPPTFGGGTKLEIK
notes: domain: human IgG4 constant region; Humanized; human IgG4 S228P and kappa constant regions; also called CUSB0125-BMVH.3 with CUSB0125-BMVL.3; not shown: human kappa constant region
Turning to B2, in assay [4], the Kd worked out at 0.249 nM, the koff is 0.000746 s⁻¹ and the kon is 2.99e+06 M⁻¹ s⁻¹. Moreover, the “PD-1/PD-L1 blockade bioassay, IC50” value in assay [5] was 0.462 mg/L.

B3: zCUSB0125.6 (antibody, human IgG4, V domains shown)
VH: QVQLQESGPGLVKPSQTLSLTCTVSGYSITSDYAWNWIRQPPGKGLEWMGYIYYSGTTSYNPSLKSRITISRDTSKNQFSLKLSSVTAADTATYYCARNYGSAFYYFDYWGQGTTLTVSS
VL: DIQMTQSPSSVSASVGDRVTITCHASQGISSNIGWLQQKPGKAFKGLIYRGTNLEDGVPSRFSGSGSGTDYTLTISSLQPEDFATYYCVQYAQFPPTFGGGTKLEIK
notes: domain: human IgG4 constant region; Humanized; human IgG4 S228P and kappa constant regions; also called CUSB0125-BMVH.2 with CUSB0125-BMVL.3; not shown: human kappa constant region
With B3, in assay [4], the Kd was determined as 0.227 nM, the koff is 0.000721 s⁻¹ and the on-rate (kon) was 3.18e+06 M⁻¹ s⁻¹. In assay [5], the “PD-1/PD-L1 blockade bioassay, IC50” value stood at 0.297 mg/L.

B4: zCUSB0125.12 (antibody, human IgG4, V domains shown)
VH: QVQLQESGPGLVKPSQTLSLTCTVSGYSITSDYAWNWIRQFPGKKLEWMGYIYYSGTTSYNPSLKSRISITRDTSKNQFSLKLSSVTAADTAVYYCARNYGSAFYYFDYWGQGTTLTVSS
VL: DIQMTQSPSSVSASVGDRVTITCHASQGISSNIGWLQQKPGKAFKGLIYRGTNLEDGVPSRFSGSGSGTDYTLTISSLQPEDFATYYCVQYAQFPPTFGGGTKLEIK
notes: domain: human IgG4 constant region; Humanized; human IgG4 S228P and kappa constant regions; also called CUSB0125-BMVH.4 with CUSB0125-BMVL.3; not shown: human kappa constant region
Turning to B4, in assay [4], the Kd was 0.182 nM, the koff turned out to be 0.000579 s⁻¹ and the kon is 3.18e+06 M⁻¹ s⁻¹. In addition, the “PD-1/PD-L1 blockade bioassay, IC50” value in assay [5] was determined as 0.312 mg/L.

B5: zCUSB0125.3 (antibody, human IgG4, V domains shown)
VH: QVQLQESGPGLVKPSQTLSLTCTVSGYSITSDYAWNWIRQPPGKGLEWIGYIYYSGTTSYNPSLKSRVTISVDTSKNQFSLKLSSVTAADTAVYYCARNYGSAFYYFDYWGQGTTLTVSS
VL: DIQMTQSPSSVSASVGDRVTITCHASQGISSNIGWLQQKPGKAFKGLIYRGTNLEDGVPSRFSGSGSGTDYTLTISSLQPEDFATYYCVQYAQFPPTFGGGTKLEIK
notes: domain: human IgG4 constant region; Humanized; human IgG4 S228P and kappa constant regions; also called CUSB0125-BMVH.1 with CUSB0125-BMVL.3; not shown: human kappa constant region
Consider B5, for which, in assay [4], the dissociation constant Kd came to 3.28 nM, the off-rate (koff) was found to be 0.00944 s⁻¹ and the kon was determined as 2.88e+06 M⁻¹ s⁻¹. Besides, in assay [5], the “PD-1/PD-L1 blockade bioassay, IC50” value amounted to 2.41 mg/L.

B6: xCUSB0125 (antibody, human IgG4, V domains shown)
VH: DVQLRESGPGLVKPSQSLSLTCTVTGYSITSDYAWNWIRQFPGNKLEWMGYIYYSGTTSYNPSLKSRISITRDTSKNQFFLQLNSVTTEDTATYYCARNYGSAFYYFDYWGQGTTLTVSS
VL: DILMTQSPSSMSVSLGDTVTITCHASQGISSNIGWLQQKPGKSFKGLIYRGTNLEDGVPSRFSGSGSGADYSLTISSLESEDFADYYCVQYAQFPPTFGGGTKLEIK
notes: Chimeric: mouse variable regions joined to human IgG4/kappa constant regions; also called chimeric CUSB0125; not shown: human IgG4 constant region, UniProt P01861; human kappa constant region, UniProt P01834
B6: the “IC50 (read off the curve)” value in assay [6] was ~0.3 mg/L. The “PD-1/PD-L1 blockade bioassay, IC50” value in assay [1] is 0.302 mg/L. Also, in assay [2], the Kd was 0.18 nM, the off-rate (koff) is 0.000512 s⁻¹ and the kon worked out at 2.84e+06 M⁻¹ s⁻¹. Besides, the EC50 in assay [3] stood at 0.0201 mg/L.
